According to the Human Domainome abundance scans (Beltran et al. 2025):
± gives the uncertainty stated by the source.

B1: Mineralocorticoid receptor, residues 600 to 675; numbered along this chain, P08235 (parent)
chain: SKICLVCGDEASGCHYGVVTCGSCKVFFKRAVEGQHNYLCAGRNDCIIDKIRRKNCPACRLQKCLQAGMNLGARKS

Variants of: B1
Assay: abundance fitness (aPCA) (normalised: wild type 0, dead -1); higher = more abundant; growth selection in yeast, the domain comes from the species named
Conditions: Homo sapiens

Abundance fitness: each site, then its substitutions
G68: P -0.451 ± 0.21; E -0.146 ± 0.052; S -0.222 ± 0.055; N -0.152 ± 0.1; I -0.266 ± 0.2; D -0.164 ± 0.079; M -0.211 ± 0.084; H -0.381 ± 0.18; W -0.447 ± 0.072; R -0.172 ± 0.039; T -0.423 ± 0.092; Q -0.153 ± 0.1; K -0.217 ± 0.07; V -0.518 ± 0.071; F -0.77 ± 0.25; L -0.484 ± 0.069; A -0.382 ± 0.065
G72: E -0.036 ± 0.055; H 0.032 ± 0.078; S -0.009 ± 0.04; W -0.124 ± 0.047; R -0.065 ± 0.035; L -0.021 ± 0.037; D 0.029 ± 0.059; F -0.134 ± 0.063; V 0.012 ± 0.036; K -0.048 ± 0.061; I -0.02 ± 0.081; Q 0.053 ± 0.072; T -0.115 ± 0.053; C 0 ± 0.047; M -0.042 ± 0.052; P 0.011 ± 0.06; Y -0.074 ± 0.067
R53: W -0.035 ± 0.053; N -0.075 ± 0.29; G -0.045 ± 0.043; M -0.167 ± 0.09; Y -0.261 ± 0.28; C -0.159 ± 0.15; V 0.025 ± 0.073; P -0.056 ± 0.058; T -0.042 ± 0.07; S -0.095 ± 0.057; K -0.078 ± 0.07; L -0.098 ± 0.076; I -0.098 ± 0.14; D -0.024 ± 0.35; Q -0.058 ± 0.068; E 0.087 ± 0.056; F -0.056 ± 0.19
Q66: L -0.112 ± 0.044; Y -0.094 ± 0.11; C -0.023 ± 0.071; V -0.039 ± 0.05; D 0.018 ± 0.088; M -0.065 ± 0.05; H -0.045 ± 0.11; P -0.697 ± 0.18; A 0.011 ± 0.054; E 0.081 ± 0.084; I -0.029 ± 0.1; W -0.029 ± 0.053; G -0.044 ± 0.049; F -0.019 ± 0.067; R -0.014 ± 0.039; T -0.051 ± 0.066
L61: V -0.101 ± 0.038; T -0.361 ± 0.07; I -0.155 ± 0.086; N -0.338 ± 0.094; Y 0.04 ± 0.074; Q -0.005 ± 0.063; D -0.774 ± 0.19; R -0.205 ± 0.039; C -0.843 ± 0.2; E -0.214 ± 0.054; H -0.233 ± 0.1; F -0.031 ± 0.085; S -0.471 ± 0.059; W -0.004 ± 0.042; G -0.566 ± 0.049; K 0.021 ± 0.048; A -0.315 ± 0.056
D49: Y -0.211 ± 0.048; W -0.258 ± 0.038
N55: S -0.051 ± 0.038; R -0.015 ± 0.039; P -0.144 ± 0.047; M -0.096 ± 0.062; T 0.015 ± 0.04; Q 0.013 ± 0.082; C -0.032 ± 0.057; I 0.009 ± 0.048; W -0.085 ± 0.088; H -0.038 ± 0.045; A -0.064 ± 0.047; F -0.093 ± 0.051; D 0.017 ± 0.048; Y -0.155 ± 0.054; E -0.082 ± 0.085; L -0.021 ± 0.039
C59: T -0.654 ± 0.066; S -0.762 ± 0.07; Q -0.957 ± 0.15; N -0.711 ± 0.092; E -0.955 ± 0.15; G -0.917 ± 0.083; M -0.913 ± 0.2; F -0.788 ± 0.13; K -0.972 ± 0.17; Y -0.995 ± 0.17; P -0.615 ± 0.08; H -0.449 ± 0.068; R -0.801 ± 0.061; W -0.855 ± 0.098; I -0.955 ± 0.14; L -0.658 ± 0.062; D -0.626 ± 0.093
R74: E 0.056 ± 0.05; Q -0.079 ± 0.057; F -0.088 ± 0.061; G -0.022 ± 0.031; L -0.061 ± 0.044; M -0.015 ± 0.055; C 0.005 ± 0.06; P -0.03 ± 0.055; K 0.02 ± 0.061; A 0.027 ± 0.046; N -0.011 ± 0.065; I -0.042 ± 0.063; D -0.003 ± 0.07
C56: Y -0.562 ± 0.26; R -0.358 ± 0.33
A58: C 0.05 ± 0.068; I -0.827 ± 0.24; Q 0.035 ± 0.061; K -0.044 ± 0.049; M -0.141 ± 0.049; L -0.175 ± 0.047; F -0.082 ± 0.08; V -0.446 ± 0.056; G -0.051 ± 0.034; W -0.102 ± 0.052; N -0.03 ± 0.092; R -0.033 ± 0.036; S 0.012 ± 0.041; D -0.085 ± 0.067; P -0.117 ± 0.054; E -0.12 ± 0.053
Q62: A -0.013 ± 0.053; W -0.059 ± 0.081; K 0.046 ± 0.1; C -0.002 ± 0.056; F -0.16 ± 0.069; N 0.033 ± 0.064; H 0.006 ± 0.051; E -0.054 ± 0.076; R -0.045 ± 0.044; T -0.052 ± 0.055; L 0.012 ± 0.042; V -0.022 ± 0.056; Y -0.121 ± 0.053; G -0.028 ± 0.049; S -0.049 ± 0.045; P -0.887 ± 0.13; M 0.026 ± 0.082
L65: Q 0.018 ± 0.054; V -0.087 ± 0.042; F -0.01 ± 0.1; Y -0.001 ± 0.076; T -0.037 ± 0.06; A -0.05 ± 0.045; R -0.055 ± 0.034; G -0.051 ± 0.038; H 0.032 ± 0.071; M -0.052 ± 0.05; D -0.051 ± 0.15; K -0.107 ± 0.061; W -0.035 ± 0.051; N -0.058 ± 0.082; E 0.031 ± 0.049
A67: Y -0.264 ± 0.3; I -0.076 ± 0.18; K -0.144 ± 0.065; D -0.653 ± 0.27; R -0.053 ± 0.041; Q -0.17 ± 0.093; M 0.055 ± 0.077; W -0.055 ± 0.061; L -0.002 ± 0.047; N -0.084 ± 0.082; F -0.121 ± 0.12; H -0.026 ± 0.17; E 0.092 ± 0.066; G -0.076 ± 0.047; C -0.03 ± 0.095
K54: P -0.072 ± 0.046; S 0.013 ± 0.035; W -0.194 ± 0.074; A -0.039 ± 0.049; Y -0.032 ± 0.048; T 0.038 ± 0.039; V -0.065 ± 0.046; R -0.083 ± 0.044; Q -0.071 ± 0.064; F 0 ± 0.05; E -0.046 ± 0.092; N 0.013 ± 0.046; L -0.106 ± 0.046; G -0.059 ± 0.05; I -0.018 ± 0.04; D -0.031 ± 0.056; H -0.118 ± 0.044
K63: L -0.092 ± 0.04; S -0.104 ± 0.037; T -0.024 ± 0.045; H -0.099 ± 0.044; G -0.104 ± 0.042; R -0.082 ± 0.045; F -0.192 ± 0.052; Q -0.134 ± 0.081; D -0.318 ± 0.063; N -0.058 ± 0.046; A -0.075 ± 0.045; I -0.101 ± 0.047; W -0.204 ± 0.083; Y -0.137 ± 0.049; M -0.074 ± 0.065; E -0.16 ± 0.064; P -0.754 ± 0.099
I51: E -0.048 ± 0.057; Y 0.048 ± 0.088; C -0.051 ± 0.073; W -0.164 ± 0.066; H 0.062 ± 0.092; P -0.137 ± 0.066; F -0.076 ± 0.077; S 0.003 ± 0.042; G -0.016 ± 0.043; M 0.024 ± 0.11; R -0.018 ± 0.042; V 0.085 ± 0.055; D -0.083 ± 0.1; N -0.108 ± 0.068; K -0.093 ± 0.051; Q 0.095 ± 0.076; A -0.018 ± 0.048; L 0.018 ± 0.056
R52: D -0.072 ± 0.092; F -0.14 ± 0.097; T -0.04 ± 0.054; A -0.034 ± 0.043; G -0.027 ± 0.039; K -0.056 ± 0.075; M -0.131 ± 0.1; P -0.081 ± 0.06; L -0.149 ± 0.062; H -0.055 ± 0.11; W -0.052 ± 0.057; S -0.04 ± 0.043; Y -0.234 ± 0.11; C -0.043 ± 0.065; I 0.049 ± 0.069; V -0.114 ± 0.057; Q 0.027 ± 0.059
N70: R -0.014 ± 0.044; P -0.021 ± 0.039; V -0.011 ± 0.058; Q -0.019 ± 0.048; H -0.031 ± 0.041; E -0.035 ± 0.063; K 0.058 ± 0.059; D 0.014 ± 0.064; I -0.02 ± 0.069; L -0.089 ± 0.044; F -0.07 ± 0.051; T -0.04 ± 0.039; G -0.082 ± 0.064; S 0.034 ± 0.032; W -0.087 ± 0.057; Y -0.009 ± 0.04; C -0.154 ± 0.054; M -0.044 ± 0.09
M69: H -0.617 ± 0.14; C -0.128 ± 0.056; K -0.261 ± 0.059; N -0.523 ± 0.12; F -0.239 ± 0.086; Y -0.493 ± 0.23; G -0.235 ± 0.037; T -0.353 ± 0.068; E -0.307 ± 0.058; R -0.421 ± 0.04; W -0.427 ± 0.065; Q -0.262 ± 0.072; A -0.058 ± 0.043; S -0.341 ± 0.059; D -0.293 ± 0.073
C64: N -0.886 ± 0.2; K -0.885 ± 0.14; F -0.466 ± 0.071; V -0.587 ± 0.057; T -0.35 ± 0.046; D -0.716 ± 0.097; A -0.028 ± 0.034; I -0.415 ± 0.065; Y -0.452 ± 0.06; G -0.02 ± 0.029; W -0.523 ± 0.052; S -0.113 ± 0.031; Q -0.315 ± 0.061; H -0.821 ± 0.14; M -0.017 ± 0.041; E -0.851 ± 0.11; L -0.351 ± 0.039; P -0.869 ± 0.11
P57: K 0.006 ± 0.057; E -0.048 ± 0.078; H -0.002 ± 0.04; R -0.115 ± 0.044; I -0.168 ± 0.044; W -0.027 ± 0.059; F -0.016 ± 0.045; S -0.051 ± 0.039; T -0.082 ± 0.04; L -0.142 ± 0.036; D 0.061 ± 0.051; A -0.04 ± 0.042; C -0.042 ± 0.057; N -0.018 ± 0.038; G -0.062 ± 0.065; V -0.135 ± 0.046; Q -0.09 ± 0.059
